Test results: article PMC8560851

Biological target: Full-length isoform 165 of human VEGF-A (human) (UniProt P15692)
Experiment: SPR; Biacore T200, 25 °C, PBS with 0.05% Tween 20 and 3.4 mM EDTA; VEGF-A amine-coupled to a CM-5 chip; Fab injected in single cycle kinetics with five increasing concentrations; double referenced; fit to a 1:1 Langmuir binding model

Full-length isoform 165 of human VEGF-A (human), sequence (P15692 other isoform, or with tags, fused parts or gaps): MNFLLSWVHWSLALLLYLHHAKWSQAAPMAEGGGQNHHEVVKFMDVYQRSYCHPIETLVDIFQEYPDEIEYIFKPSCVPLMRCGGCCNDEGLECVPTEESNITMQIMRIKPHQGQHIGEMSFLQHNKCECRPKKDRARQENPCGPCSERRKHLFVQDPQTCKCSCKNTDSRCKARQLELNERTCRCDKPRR

B1: bH1 Fab H3 variant 16_0325 (Fab, V domains shown)
VH: EVQLVESGGGLVQPGGSLRLSCAASGFNIKDTYIHWVRQAPGKGLEWVARIYPTNGYTRYADSVKGRFTISADTSKNTAYLQMNSLRAEDTAVYYCARGGAVAGTGVYYFDYWGQGTLVTVSS
VL: DIQMTQSPSSLSASVGDRVTITCRASQDIPRSISGYVAWYQQKPGKAPKLLIYWGSYLYSGVPSRFSGSGSGTDFTLTISSLQPEDFATYYCQQHYTTPPTFGQGTKVEIK
Binder B1 has a Kd of 8 nM.

B2: bH1 Fab H3 variant 14_0112 (Fab, V domains shown)
VH: EVQLVESGGGLVQPGGSLRLSCAASGFNIKDTYIHWVRQAPGKGLEWVARIYPTNGYTRYADSVKGRFTISADTSKNTAYLQMNSLRAEDTAVYYCAKGGSSSGPYHFEYWGQGTLVTVSS
VL: B1 VL
B2 showed a Kd of 8 nM.
